Publication PMC5374589

Biological target: Murine PD-L1 (murine) (UniProt Q9EP73)
Chain of UniProt Q9EP73 (Q9EP73 19-290): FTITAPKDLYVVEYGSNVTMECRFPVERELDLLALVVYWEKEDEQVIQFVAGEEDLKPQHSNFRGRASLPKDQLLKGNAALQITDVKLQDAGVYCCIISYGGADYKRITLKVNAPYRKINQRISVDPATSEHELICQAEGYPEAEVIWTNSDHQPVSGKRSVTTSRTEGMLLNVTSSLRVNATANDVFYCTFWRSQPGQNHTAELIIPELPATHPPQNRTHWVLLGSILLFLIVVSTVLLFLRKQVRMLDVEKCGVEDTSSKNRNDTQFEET

PD-1-CD28 fusion receptor
T cell-induced lysis of EG7-PD-L1 target cells in co-culture with PD-1-CD28 fusion receptor transduced OVA-specific CD8+ T cells: 3 fold
